Results reported in patent publication US20260242735A1 (UNIVERSIT T BASEL, published 2026).

B1: Refmab #5 (antibody, human IgG1, V domains shown)
VH: QVQLVQSGAEVKKPGASVKVSCKASGYTFTNYDINWVRQAPGQGLEWIGWIYPGDGSTKYNEKFKAKATLTADTSTSTAYMELRSLRSDDTAVYYCASGYEDAMDYWGQGTTVTVSS
VL: DIQMTQSPSSLSASVGDRVTINCKASQDINSYLSWFQQKPGKAPKTLIYRANRLVDGVPSRFSGSGSGQDYTLTISSLQPEDFATYYCLQYDEFPLTFGGGTKVEIK
B2: Refmab #1 (antibody, V domains shown)
VH: EVQLVQSGAEVKKPGSSVKVSCKASGYTITDSNIHWVRQAPGQSLEWIGYIYPYNGGTDYNQKFKNRATLTVDNPTNTAYMELSSLRSEDTAFYYCVNGNPWLAYWGQGTLVTVSS
VL: DIQLTQSPSTLSASVGDRVTITCRASESLDNYGIRFLTWFQQKPGKAPKLLMYAASNQGSGVPSRFSGSGSGTEFTLTISSLQPDDFATYYCQQTKEVPWSFGQGTKVEVK
notes: Full-length format is human IgG1 (Absolute Antibody Ab00283-10.0); The alanine scan used IgG or Fab; also called hP67.6
B3: Refmab #3 (antibody, V domains shown)
VH: QVQLVQSGAEVKKPGSSVKVSCKASGYTFTDYNMHWVRQAPGQGLEWIGYIYPYNGGTGYNQKFKSKATITADESTNTAYMELSSLRSEDTAVYYCARGRPAMDYWGQGTLVTVSS
VL: DIQMTQSPSSLSASVGDRVTITCRASESVDNYGISFMNWFQQKPGKAPKLLIYAASNQGSGVPSRFSGSGSGTDFTLTISSLQPDDFATYYCQQSKEVPWTFGQGTKVEIK
notes: Full-length format is human IgG1 Fc silent (PG-LALA); The alanine scan used IgG or Fab
B4: Refmab #4 (antibody, V domains shown)
VH: QVQLVQSGAEVKKPGESVKVSCKASGYTFTNYGMNWVKQAPGQGLEWMGWINTYTGEPTYADKFQGRVTMTTDTSTSTAYMEIRNLGGDDTAVYYCARWSWSDGYYVYFDYWGQGTSVTVSS
VL: DIVMTQSPDSLTVSLGERTTINCKSSQSVLDSSTNKNSLAWYQQKPGQPPKLLLSWASTRESGIPDRFSGSGSGTDFTLTIDSPQPEDSATYYCQQSAHFPITFGQGTRLEIK
notes: as for B3
B5: Refmab #2 (antibody, V domains shown)
VH: QVQLVQSGAEVKKPGSSVKVSCKASGGTFSDYAISWVRQAPGQGLEWMGRIIPILGVADYAQKFQGRVTITADKSTRTAYMELSSLRSEDTAVYYCARNWADAFDIWGQGTMVTVSS
VL: DIQLTQSPSSLSASVGDRVTITCRASQGISSVLAWYQQKPGKAPKLLIYDASSLESGVPSRFSGSGSGTDFTLTISSLQPEDFATYYCQQFDSSITFGQGTKLEIK
notes: as for B3

Assays:
human CD33 Y50Q = human CD33 Y50Q (human, UniProt P20138 18-364); assay: flow cytometry, transfected cells
human CD33 Y50L = human CD33 Y50L (human, UniProt P20138 18-364); assay: flow cytometry, transfected cells
human CD33 Y49C = human CD33 Y49C (human, UniProt P20138 18-364); assay: flow cytometry, transfected cells
human CD33 Y50G = human CD33 Y50G (human, UniProt P20138 18-364); assay: flow cytometry, transfected cells
human CD33 Y50H = human CD33 Y50H (human, UniProt P20138 18-364); assay: flow cytometry, transfected cells
human CD33 Y50N = human CD33 Y50N (human, UniProt P20138 18-364); assay: flow cytometry, transfected cells
human CD33 P48G = human CD33 P48G (human, UniProt P20138 18-364); assay: flow cytometry, transfected cells
human CD33 Y50D = human CD33 Y50D (human, UniProt P20138 18-364); assay: flow cytometry, transfected cells
human CD33 K52D = human CD33 K52D (human, UniProt P20138 18-364); assay: flow cytometry, transfected cells
human CD33 P48D = human CD33 P48D (human, UniProt P20138 18-364); assay: flow cytometry, transfected cells
human CD33 P48H = human CD33 P48H (human, UniProt P20138 18-364); assay: flow cytometry, transfected cells
human CD33 F21A = human CD33 F21A (human, UniProt P20138 18-364); assay: alanine scan, flow cytometry;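 also: HEK293-T cells transiently expressing single-residue alanine mutants of CD33 (alanine swapped to serine), antibody binding read by fluorescence in duplicate, background-subtracted, expressed relative to wild-type CD33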
human CD33 V39A = human CD33 V39A (human, UniProt P20138 18-364); assay: alanine scan, flow cytometry;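 also: HEK293-T cells transiently expressing single-residue alanine mutants of CD33 (alanine swapped to serine), antibody binding read by fluorescence in duplicate, background-subtracted, expressed relative to wild-type CD33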
human CD33 L78A = human CD33 L78A (human, UniProt P20138 18-364); assay: alanine scan, flow cytometry;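 also: HEK293-T cells transiently expressing single-residue alanine mutants of CD33 (alanine swapped to serine), antibody binding read by fluorescence in duplicate, background-subtracted, expressed relative to wild-type CD33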
human CD33 Q26A = human CD33 Q26A (human, UniProt P20138 18-364); assay: alanine scan, flow cytometry;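 also: HEK293-T cells transiently expressing single-residue alanine mutants of CD33 (alanine swapped to serine), antibody binding read by fluorescence in duplicate, background-subtracted, expressed relative to wild-type CD33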
human CD33 S71A = human CD33 S71A (human, UniProt P20138 18-364); assay: alanine scan, flow cytometry
human CD33 Q83A = human CD33 Q83A (human, UniProt P20138 18-364); assay: alanine scan, flow cytometry
human CD33 D79A = human CD33 D79A (human, UniProt P20138 18-364); assay: alanine scan, flow cytometry
human CD33 Q32A = human CD33 Q32A (human, UniProt P20138 18-364); assay: alanine scan, flow cytometry
human CD33 C36A = human CD33 C36A (human, UniProt P20138 18-364); assay: alanine scan, flow cytometry
human CD33 T75A = human CD33 T75A (human, UniProt P20138 18-364); assay: alanine scan, flow cytometry
human CD33 S54A = human CD33 S54A (human, UniProt P20138 18-364); assay: alanine scan, flow cytometry
human CD33 N53A = human CD33 N53A (human, UniProt P20138 18-364); assay: alanine scan, flow cytometry
human CD33 G34A = human CD33 G34A (human, UniProt P20138 18-364); assay: alanine scan, flow cytometry
human CD33 P55A = human CD33 P55A (human, UniProt P20138 18-364); assay: alanine scan, flow cytometry
human CD33 G88A = human CD33 G88A (human, UniProt P20138 18-364); assay: alanine scan, flow cytometry
human CD33 N20A = human CD33 N20A (human, UniProt P20138 18-364); assay: alanine scan, flow cytometry
human CD33 V29A = human CD33 V29A (human, UniProt P20138 18-364); assay: alanine scan, flow cytometry
human CD33 F43A = human CD33 F43A (human, UniProt P20138 18-364); assay: alanine scan, flow cytometry
human CD33 F61A = human CD33 F61A (human, UniProt P20138 18-364); assay: alanine scan, flow cytometry
human CD33 T30A = human CD33 T30A (human, UniProt P20138 18-364); assay: alanine scan, flow cytometry
human CD33 T86A = human CD33 T86A (human, UniProt P20138 18-364); assay: alanine scan, flow cytometry
Sequence of human CD33 T86A (P20138 18-364 T86A limits assumed): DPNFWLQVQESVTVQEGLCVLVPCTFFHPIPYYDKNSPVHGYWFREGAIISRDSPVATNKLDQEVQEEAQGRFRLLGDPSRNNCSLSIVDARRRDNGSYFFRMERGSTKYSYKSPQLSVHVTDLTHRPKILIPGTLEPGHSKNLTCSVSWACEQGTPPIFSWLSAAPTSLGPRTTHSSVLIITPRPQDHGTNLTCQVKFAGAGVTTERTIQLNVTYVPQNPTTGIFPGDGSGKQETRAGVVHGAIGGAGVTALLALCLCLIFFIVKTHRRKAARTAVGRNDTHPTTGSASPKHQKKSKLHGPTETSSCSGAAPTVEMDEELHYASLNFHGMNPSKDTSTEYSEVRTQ

Sequence of human CD33 S71A (P20138 18-364 S71A limits assumed): as the sequence (P20138 18-364 T86A limits assumed) above, with S54A, A69T counted along it
Sequence of human CD33 F61A (P20138 18-364 F61A limits assumed): as the sequence (P20138 18-364 T86A limits assumed) above, with F44A, A69T counted along it
Sequence of human CD33 D79A (P20138 18-364 D79A limits assumed): as the sequence (P20138 18-364 T86A limits assumed) above, with D62A, A69T counted along it
Sequence of human CD33 Q83A (P20138 18-364 Q83A limits assumed): as the sequence (P20138 18-364 T86A limits assumed) above, with Q66A, A69T counted along it
Sequence of human CD33 G34A (P20138 18-364 G34A limits assumed): as the sequence (P20138 18-364 T86A limits assumed) above, with G17A, A69T counted along it
Sequence of human CD33 G88A (P20138 18-364 G88A limits assumed): as the sequence (P20138 18-364 T86A limits assumed) above, with A69T, G71A counted along it
Sequence of human CD33 F21A (P20138 18-364 F21A limits assumed): as the sequence (P20138 18-364 T86A limits assumed) above, with F4A, A69T counted along it
Sequence of human CD33 Q32A (P20138 18-364 Q32A limits assumed): as the sequence (P20138 18-364 T86A limits assumed) above, with Q15A, A69T counted along it
Sequence of human CD33 N53A (P20138 18-364 N53A limits assumed): as the sequence (P20138 18-364 T86A limits assumed) above, with N36A, A69T counted along it
Sequence of human CD33 C36A (P20138 18-364 C36A limits assumed): as the sequence (P20138 18-364 T86A limits assumed) above, with C19A, A69T counted along it
Sequence of human CD33 S54A (P20138 18-364 S54A limits assumed): as the sequence (P20138 18-364 T86A limits assumed) above, with S37A, A69T counted along it
Sequence of human CD33 T75A (P20138 18-364 T75A limits assumed): as the sequence (P20138 18-364 T86A limits assumed) above, with T58A, A69T counted along it
Sequence of human CD33 N20A (P20138 18-364 N20A limits assumed): as the sequence (P20138 18-364 T86A limits assumed) above, with N3A, A69T counted along it
Sequence of human CD33 L78A (P20138 18-364 L78A limits assumed): as the sequence (P20138 18-364 T86A limits assumed) above, with L61A, A69T counted along it
Sequence of human CD33 V29A (P20138 18-364 V29A limits assumed): as the sequence (P20138 18-364 T86A limits assumed) above, with V12A, A69T counted along it
Sequence of human CD33 T30A (P20138 18-364 T30A limits assumed): as the sequence (P20138 18-364 T86A limits assumed) above, with T13A, A69T counted along it
Sequence of human CD33 F43A (P20138 18-364 F43A limits assumed): as the sequence (P20138 18-364 T86A limits assumed) above, with F26A, A69T counted along it
Sequence of human CD33 V39A (P20138 18-364 V39A limits assumed): as the sequence (P20138 18-364 T86A limits assumed) above, with V22A, A69T counted along it
Sequence of human CD33 P55A (P20138 18-364 P55A limits assumed): as the sequence (P20138 18-364 T86A limits assumed) above, with P38A, A69T counted along it
Sequence of human CD33 Q26A (P20138 18-364 Q26A limits assumed): as the sequence (P20138 18-364 T86A limits assumed) above, with Q9A, A69T counted along it
Sequence of human CD33 P48H (P20138 18-364 P48H limits assumed): as the sequence (P20138 18-364 T86A limits assumed) above, with P31H, A69T counted along it
Sequence of human CD33 Y50Q (P20138 18-364 Y50Q limits assumed): as the sequence (P20138 18-364 T86A limits assumed) above, with Y33Q, A69T counted along it
Sequence of human CD33 Y49C (P20138 18-364 Y49C limits assumed): as the sequence (P20138 18-364 T86A limits assumed) above, with Y32C, A69T counted along it
Sequence of human CD33 Y50H (P20138 18-364 Y50H limits assumed): as the sequence (P20138 18-364 T86A limits assumed) above, with Y33H, A69T counted along it
Sequence of human CD33 Y50N (P20138 18-364 Y50N limits assumed): as the sequence (P20138 18-364 T86A limits assumed) above, with Y33N, A69T counted along it
Sequence of human CD33 Y50D (P20138 18-364 Y50D limits assumed): as the sequence (P20138 18-364 T86A limits assumed) above, with Y33D, A69T counted along it
Sequence of human CD33 P48D (P20138 18-364 P48D limits assumed): as the sequence (P20138 18-364 T86A limits assumed) above, with P31D, A69T counted along it
Sequence of human CD33 Y50L (P20138 18-364 Y50L limits assumed): as the sequence (P20138 18-364 T86A limits assumed) above, with Y33L, A69T counted along it
Sequence of human CD33 Y50G (P20138 18-364 Y50G limits assumed): as the sequence (P20138 18-364 T86A limits assumed) above, with Y33G, A69T counted along it
Sequence of human CD33 K52D (P20138 18-364 K52D limits assumed): as the sequence (P20138 18-364 T86A limits assumed) above, with K35D, A69T counted along it
Sequence of human CD33 P48G (P20138 18-364 P48G limits assumed): as the sequence (P20138 18-364 T86A limits assumed) above, with P31G, A69T counted along it

| Binder | Mean % WT Binding (human CD33 F21A) [% WT] | Mean % WT Binding (human CD33 V39A) [% WT] | Mean % WT Binding (human CD33 L78A) [% WT] | Mean % WT Binding (human CD33 Q26A) [% WT] | Mean % WT Binding (human CD33 S71A) [% WT] | Mean % WT Binding (human CD33 Q83A) [% WT] | Mean % WT Binding (human CD33 D79A) [% WT] | Mean % WT Binding (human CD33 Q32A) [% WT] | Mean % WT Binding (human CD33 C36A) [% WT] | Mean % WT Binding (human CD33 T75A) [% WT] | Mean % WT Binding (human CD33 S54A) [% WT] | Mean % WT Binding (human CD33 N53A) [% WT] | Mean % WT Binding (human CD33 G34A) [% WT] | Mean % WT Binding (human CD33 P55A) [% WT] | Mean % WT Binding (human CD33 G88A) [% WT] | Mean % WT Binding (human CD33 N20A) [% WT] | Mean % WT Binding (human CD33 V29A) [% WT] | Mean % WT Binding (human CD33 F43A) [% WT] | Mean % WT Binding (human CD33 F61A) [% WT] | Mean % WT Binding (human CD33 T30A) [% WT] | other results |
| --- | --- | --- | --- | --- | --- | --- | --- | --- | --- | --- | --- | --- | --- | --- | --- | --- | --- | --- | --- | --- | --- |
| B1 |  |  |  |  |  |  |  |  |  |  |  |  |  |  |  |  |  |  |  |  | binding result (human CD33 Y50Q): no binding (tested: below 20%); binding result (human CD33 Y50L): no binding (tested: below 20%); binding result (human CD33 Y49C): no binding (tested: below 20%); binding result (human CD33 Y50G): no binding (tested: below 20%); binding result (human CD33 Y50H): no binding (tested: below 20%); binding result (human CD33 Y50N): no binding (tested: below 20%); binding result (human CD33 P48G): no binding (tested: below 20%); binding result (human CD33 Y50D): no binding (tested: below 20%); binding result (human CD33 K52D): no binding (tested: below 20%); binding result (human CD33 P48D): no binding (tested: below 20%); binding result (human CD33 P48H): no binding (tested: below 20%) |
| B2 | 0.4 | 80 | 87.4 | 81.4 | 108 | 87.1 | 88.1 | 87 | 72.6 | 101 | 87.6 | 94.7 | 99.5 | 98.8 | 96.1 | 1.2 | 102 | 66.3 | 95 | 89.3 | Mean % WT Binding (human CD33 T86A): 79.1 % WT |
| B3 | 13.6 | 122 | 113 | 124 | 118 | 103 | 105 | 133 | 102 | 118 | 106 | 116 | 99.4 | 142 | 88.3 | 34.9 | 115 | 49.3 | 304 | 104 | Mean % WT Binding (human CD33 T86A): 112 % WT |
| B4 | 43.6 | 58.4 | 111 | 63.1 | 99.4 | 104 | 74.5 | 83 | 108 | 93.8 | 99.9 | 69 | 93.4 | 95.4 | 97.7 | 158 | 84.4 | 7.8 | 131 | 104 | Mean % WT Binding (human CD33 T86A): 103 % WT |
| B5 | 120 | 111 | 108 | 111 | 112 | 107 | 102 | 108 | 117 | 114 | 112 | 96 | 105 | 120 | 110 | 121 | 100 | 10.6 | 135 | 92.1 | Mean % WT Binding (human CD33 T86A): 113 % WT |
